Data: PMC10296842, “How Do Cancer-Related Mutations Affect the Oligomerisation State of the p53 Tetramerisation Domain?” (Current Issues in Molecular Biology, 2023)

Target: the molecule itself
Experiment: native MS; peptide alone in 200 mM ammonium acetate, pH 7; high monomer concentration (80 uM WT and T329I, 100 uM R337H), cone voltage 40 V (raised to 80-120 V to dissociate the oligomers); positive ESI, TOF and ion mobility-TOF; WT and R337H not isotope-labelled

B1: 37TD-WT (wild-type p53 tetramerisation domain peptide, residues 320-356) (peptide, UniProt P04637 320-356, looked up)
chain: Ac-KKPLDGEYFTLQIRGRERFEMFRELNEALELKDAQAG-NH2
modifications: also: 13C-methyl Met340 in the isotope-labelled form
notes: p53 tetramerisation domain, residues 320-356 (37 amino acids); Made twice: with normal methionine (used in native MS and CD) and with 13C-methyl methionine (used in NMR); also called WT TD; p53TD; source: synthetic peptide (manual Fmoc/tBu SPPS), purified by semi-preparative HPLC
  stoichiometry N: 4
